Reference: patent US20100285506A1

Columns and labels:
[1] = target: MPT64 (Mycobacterium tuberculosis); experiment: CAPILIA TB kit; pretreated patient sputum, sample number 5, smear 2+
[2] = target: MPT64 (Mycobacterium tuberculosis); experiment: CAPILIA TB kit; pretreated patient sputum, sample number 1, smear +
[3] = target: MPT64 (Mycobacterium tuberculosis); experiment: CAPILIA TB kit; pretreated patient sputum, sample number 4, smear 2+
[4] = target: MPT64 (Mycobacterium tuberculosis); experiment: CAPILIA TB kit; pretreated patient sputum, sample number 7, smear 3+
[5] = target: MPT64 (Mycobacterium tuberculosis); experiment: CAPILIA TB kit; pretreated patient sputum, sample number 2, smear +
[6] = target: MPT64 (Mycobacterium tuberculosis); experiment: CAPILIA TB kit; pretreated patient sputum, sample number 3, smear +
[7] = target: MPT64 (Mycobacterium tuberculosis); experiment: CAPILIA TB kit; pretreated patient sputum, sample number 6, smear 3+
[8] = target: MPT64 (Mycobacterium tuberculosis); experiment: CAPILIA TB kit; pretreated patient sputum, sample number 8, smear 3+

Measured: Absorbance

CAPILIA TB (trade name; manufactured by TAUNS LABORATORIES INC.)
23: [8]
0: all other assays above
